Results published in IntAct's records for PubMed 21441914.

B1: Double-strand break repair protein rad32 (Schizosaccharomyces pombe (strain ATCC 38366 / 972)), Q09683 (parent)
chain: MPNDPSDMNNELHNENTIRILISSDPHVGYGEKDPVRGNDSFVSFNEILEIARERDVDMILLGGDIFHDNKPSRKALYQALRSLRLNCLGDKPCELELLSDTSLTTGDTAVCNINYLDPNINVAIPVFSIHGNHDDPSGDGRYSALDILQVTGLVNYFGRVPENDNIVVSPILLQKGFTKLALYGISNVRDERLYHSFRENKVKFLRPDLYRDEWFNLLTVHQNHSAHTPTSYLPESFIQDFYDFVLWGHEHECLIDGSYNPTQKFTVVQPGSTIATSLSPGETAPKHCGILNITGKDFHLEKIRLRTVRPFIMKDIILSEVSSIPPMVENKKEVLTYLISKVEEAITEANAQWYEAQGTVPVVENEKPPLPLIRLRVDYTGGYQTENPQRFSNRFVGRVANATDVVQFYLKKKYTRSKRNDGLYTSAVEDIKINSLRVESLVNEYLKTNRLECLPEDSLGEAVVNFVEKDDRDAIKECVETQLNKQINLLVKKRVTEENLEQEISSIINDLPKISTTKRKDYEELPEEVSETSINIAEHTPVLKHTSSLLDHHSPLATSSSEHEMEATPSPALLKKTNKRRELPSSLTKKNTRTPQRSKEVKKVPARKLSQSTKKSDKNTQSTLLFYDPSSTTEAQYLDNEDDEILDD
partner: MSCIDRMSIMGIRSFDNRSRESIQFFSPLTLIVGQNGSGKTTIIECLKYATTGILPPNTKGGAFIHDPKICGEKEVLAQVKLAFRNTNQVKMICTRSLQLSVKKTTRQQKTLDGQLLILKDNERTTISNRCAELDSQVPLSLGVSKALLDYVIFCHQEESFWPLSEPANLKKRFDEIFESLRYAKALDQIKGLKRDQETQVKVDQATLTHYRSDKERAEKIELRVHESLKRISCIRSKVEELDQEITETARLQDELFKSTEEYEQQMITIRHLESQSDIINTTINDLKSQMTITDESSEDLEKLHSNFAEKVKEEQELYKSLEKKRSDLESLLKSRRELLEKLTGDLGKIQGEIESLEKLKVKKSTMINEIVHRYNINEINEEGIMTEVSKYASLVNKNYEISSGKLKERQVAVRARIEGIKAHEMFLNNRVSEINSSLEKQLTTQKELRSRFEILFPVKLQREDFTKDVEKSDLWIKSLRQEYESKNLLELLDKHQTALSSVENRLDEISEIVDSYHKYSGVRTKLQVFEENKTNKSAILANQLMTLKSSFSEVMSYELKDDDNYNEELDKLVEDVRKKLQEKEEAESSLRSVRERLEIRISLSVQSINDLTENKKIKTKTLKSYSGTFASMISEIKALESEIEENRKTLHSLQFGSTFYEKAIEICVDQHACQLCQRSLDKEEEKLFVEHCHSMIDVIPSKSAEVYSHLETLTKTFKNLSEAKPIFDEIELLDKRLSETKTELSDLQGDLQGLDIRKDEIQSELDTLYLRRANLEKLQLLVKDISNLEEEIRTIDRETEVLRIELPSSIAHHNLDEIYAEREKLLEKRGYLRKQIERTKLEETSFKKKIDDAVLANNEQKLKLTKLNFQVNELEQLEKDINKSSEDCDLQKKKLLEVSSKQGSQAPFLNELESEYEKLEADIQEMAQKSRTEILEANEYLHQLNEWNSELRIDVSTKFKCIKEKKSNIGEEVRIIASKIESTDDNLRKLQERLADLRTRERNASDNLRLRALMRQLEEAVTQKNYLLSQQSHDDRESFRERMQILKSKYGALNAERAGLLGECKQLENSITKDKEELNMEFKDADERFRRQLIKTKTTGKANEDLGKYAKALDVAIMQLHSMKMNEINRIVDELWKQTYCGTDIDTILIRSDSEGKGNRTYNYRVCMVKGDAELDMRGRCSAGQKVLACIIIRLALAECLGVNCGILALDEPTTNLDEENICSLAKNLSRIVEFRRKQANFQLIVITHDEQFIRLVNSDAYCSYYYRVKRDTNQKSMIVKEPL

Variants of: B1
Details: with rad50_schpo rad50, Q9UTJ8

| effect of a mutation on the interaction | Variant |
| --- | --- |
| disrupting interaction | C479R;V480R |
| disrupting interaction | C454R;L455R |
| disrupting interaction | C454R;L455R;C479R;V480R |
